Test results published in the supplement of paper PMC7877785.
± gives the uncertainty stated by the source.

Assay: self-splicing fitness, log relative to wild type (ln ratio); higher = more splicing; Tetrahymena group I intron in knt gene, E. coli kanamycin selection, DiMSum; sequences stand for … in CUCUCU…GGAGGGAAAAGUUAUCAGGCAUGCACCUGGUAGCUAGUCUUUAAACCAAUAGAUUGCAUCGGUUUAAAAGGCAAGACCGUCAAAUUGCGGGAAAGGGGUCAACAGCCGUUCAGUACCAAGUCUCAGGGGAAACUUUGAGAUGGCCUUGCAAAGGGUAUGGUAAUAAGCUGACGGACAUGGUCCUAACCACGCAGCCAAGUCCUAAGUCAACAGAUCUUCUGUUGAUAUGGAUGCAGUUCACAGACUAAAUGUCGGUCGGGGAAGAUGUAUUCUUCUCAUAAGAUAUAGUCGGACCUCUCCUUAAUGGGAGCUAGCGGAUGAAGUGAUGCAACACUGGAGCCGCUGGGAACUAAUUUGUAUGCGAAAGUAUAUUGAUUAGUUUUGGAGUACUCGUGGUCG
How it was run: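 DiMSum derived fitness as the error-weighted combination of fold changes across replicates, kanamycin versus no kanamycin, normalised to wild type. E. coli BL21(DE3) held the library, which randomised all eight P1ex-region intron nucleotides within the knt kanamycin-resistance gene on pET-22b(+). Six replicate transformations grew overnight at 37°C or 30°C on LB agar with or without 25 μg/mL kanamycin, also containing 100 μg/mL carbenicillin, 50 μM IPTG and 0.2% rhamnose, and pooled colonies were amplicon-sequenced on an Illumina HiSeq 2500.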

Sequence | self-splicing fitness (ln) (30 °C) | self-splicing fitness (ln) (37 °C)
CGCGAGCAAUAUUACGUCGA | -4.28 ± 0.46 | -2.73 ± 0.24
CGCGAGCAAUAUUACGUCUA | -1.42 ± 0.17 | -0.973 ± 0.26
CGCGAGCAAUAUUACGUGCU | -2.71 ± 0.14 | -2 ± 0.22
CGCGAGCAAUAUUACGUGGC | -2.53 ± 0.18 | -2.16 ± 0.18
CGCGAGCAAUAUUACGUUAA | -3.18 ± 0.16 | -4.09 ± 0.36
CGCUAGCAAUAUUACGAAAA | -1.65 ± 0.16 | -1.98 ± 0.15
CGCUAGCAAUAUUACGAAUA | -2.58 ± 0.19 | -2.57 ± 0.23
CGCUAGCAAUAUUACGAUGA | -1.14 ± 0.1 | -0.401 ± 0.087
CGCUAGCAAUAUUACGCCAU | -3.62 ± 0.3 | -1.27 ± 0.27
CGCUAGCAAUAUUACGCUAC |  | -2.29 ± 0.5
CGCUAGCAAUAUUACGGACU | -0.928 ± 0.09 | -1.08 ± 0.12
CGCUAGCAAUAUUACGGCCG | -1.19 ± 0.17 | -1.11 ± 0.14
CGCUAGCAAUAUUACGGCUU | -0.961 ± 0.081 | -0.559 ± 0.1
CGCUAGCAAUAUUACGGGAC |  | -2.63 ± 0.22
CGCUAGCAAUAUUACGGGAG | -2.79 ± 0.1 | -1.43 ± 0.082
CGCUAGCAAUAUUACGGUGG | -1.71 ± 0.12 | -2.3 ± 0.17
CGGAAGCAAUAUUACGAAUU | -3.28 ± 0.36 | -2.77 ± 0.44
CGGAAGCAAUAUUACGACCC | -0.496 ± 0.27 | -0.781 ± 0.33
CGGAAGCAAUAUUACGAGAU |  | -2.18 ± 0.33
CGGAAGCAAUAUUACGAGGG | -0.374 ± 0.41 | 
CGGAAGCAAUAUUACGAUGG | -0.404 ± 0.096 | 0.233 ± 0.13
CGGAAGCAAUAUUACGCCGC | -2.96 ± 0.28 | -2.51 ± 0.35
CGGAAGCAAUAUUACGGCGC | -1.89 ± 0.37 | -0.448 ± 0.28
CGGAAGCAAUAUUACGGGAA | -3.16 ± 0.46 | -2.3 ± 0.28
CGGAAGCAAUAUUACGGGGG | -3.72 ± 0.13 | -3.16 ± 0.13
CGGAAGCAAUAUUACGGUCA | -0.599 ± 0.078 | 0.421 ± 0.08
CGGAAGCAAUAUUACGGUCG | -1.55 ± 0.099 | -0.978 ± 0.12

Sequence | self-splicing fitness (ln) (30 °C) | self-splicing fitness (ln) (37 °C)
CGGAAGCAAUAUUACGGUGU | -3.77 ± 0.18 | -2.1 ± 0.12
CGGAAGCAAUAUUACGGUUA | -1.96 ± 0.18 | -2.25 ± 0.2
CGGAAGCAAUAUUACGGUUC | -3.49 ± 0.3 | -2.85 ± 0.25
CGGAAGCAAUAUUACGGUUU | -4.42 ± 0.36 | -3.88 ± 0.31
CGGAAGCAAUAUUACGUCGG | -0.77 ± 0.064 | 0.0281 ± 0.099
CGGAAGCAAUAUUACGUGAA | -3.4 ± 0.17 | -1.66 ± 0.15
CGGAAGCAAUAUUACGUGAG | -0.991 ± 0.058 | -0.391 ± 0.085
CGGAAGCAAUAUUACGUUCG | -2.69 ± 0.18 | -2.29 ± 0.34
CGGAAGCAAUAUUACGUUUC | -4.04 ± 0.29 | -2.69 ± 0.23
CGGCAGCAAUAUUACGAACA | -0.789 ± 0.096 | -0.204 ± 0.12
CGGCAGCAAUAUUACGAAGU | -3.35 ± 0.28 | -0.302 ± 0.2
CGGCAGCAAUAUUACGAAUG | 0.0635 ± 0.086 | -0.00804 ± 0.099
CGGCAGCAAUAUUACGACAG | 0.187 ± 0.11 | -1.27 ± 0.12
CGGCAGCAAUAUUACGACCC | -0.681 ± 0.19 | 0.752 ± 0.29
CGGCAGCAAUAUUACGACUA | -0.68 ± 0.097 | 0.0629 ± 0.12
CGGCAGCAAUAUUACGAGCC | -2.78 ± 0.24 | -1.37 ± 0.21
CGGCAGCAAUAUUACGAUCG | -2.76 ± 0.18 | -1.97 ± 0.19
CGGCAGCAAUAUUACGCCGG | -2.15 ± 0.17 | -2.16 ± 0.23
CGGCAGCAAUAUUACGCUCA | -0.116 ± 0.15 | -0.137 ± 0.16
CGGCAGCAAUAUUACGGACA | -0.835 ± 0.12 | 0.127 ± 0.11
CGGCAGCAAUAUUACGGCGC | -2.64 ± 0.27 | -2.53 ± 0.24
CGGCAGCAAUAUUACGGGCU | -3.81 ± 0.22 | -2.16 ± 0.24
CGGCAGCAAUAUUACGGUCC | -1.34 ± 0.082 | 0.00991 ± 0.09
CGGCAGCAAUAUUACGGUGG | -1.41 ± 0.09 | -0.157 ± 0.082
CGGCAGCAAUAUUACGUAUU | -3.6 ± 0.16 | -3.11 ± 0.18
CGGCAGCAAUAUUACGUCGU | -3.21 ± 0.2 | -2.64 ± 0.21
CGGCAGCAAUAUUACGUCUC | -1.24 ± 0.065 | -0.433 ± 0.086

Sequence | self-splicing fitness (ln) (30 °C) | self-splicing fitness (ln) (37 °C)
CGGCAGCAAUAUUACGUGCG | -3 ± 0.16 | -2.54 ± 0.16
CGGCAGCAAUAUUACGUGGG | -3.46 ± 0.14 | -2.24 ± 0.11
CGGCAGCAAUAUUACGUUGU | -2.18 ± 0.11 | -2.68 ± 0.19
CGGGAGCAAUAUUACGAACG | -4.35 ± 0.24 | -3 ± 0.23
CGGGAGCAAUAUUACGAAUA | -2.55 ± 0.36 | -2.52 ± 0.39
CGGGAGCAAUAUUACGACCA | -1.08 ± 0.31 | 
CGGGAGCAAUAUUACGAGAC | -3.18 ± 0.45 | -2.45 ± 0.44
CGGGAGCAAUAUUACGAUAU | -3.65 ± 0.35 | 
CGGGAGCAAUAUUACGAUGU | -2.47 ± 0.39 | -2.53 ± 0.39
CGGGAGCAAUAUUACGCAAA |  | -2.01 ± 0.35
CGGGAGCAAUAUUACGCAAG | -3.14 ± 0.23 | -2.13 ± 0.29
CGGGAGCAAUAUUACGCAGU |  | -1.82 ± 0.29
CGGGAGCAAUAUUACGCAUA | -2.61 ± 0.37 | -1.96 ± 0.35
CGGGAGCAAUAUUACGCGCG |  | -0.901 ± 0.27
CGGGAGCAAUAUUACGCGUU | -1.22 ± 0.23 | 
CGGGAGCAAUAUUACGCUGG | -4.21 ± 0.42 | -2 ± 0.3
CGGGAGCAAUAUUACGGCAG | -2.71 ± 0.21 | -1.12 ± 0.26
CGGGAGCAAUAUUACGGGCU | -3.85 ± 0.34 | -2.5 ± 0.41
CGGGAGCAAUAUUACGUACG | -2.98 ± 0.11 | -1.53 ± 0.097
CGGGAGCAAUAUUACGUAGA | -3.97 ± 0.47 | -1.96 ± 0.26
CGGGAGCAAUAUUACGUAGU |  | -1.78 ± 0.29
CGGGAGCAAUAUUACGUUGG | -3.83 ± 0.22 | -2.52 ± 0.2
CGGUAGCAAUAUUACGACCA | -0.494 ± 0.17 | -0.426 ± 0.14
CGGUAGCAAUAUUACGACUA | -0.298 ± 0.14 | 0.0316 ± 0.16
CGGUAGCAAUAUUACGAGCG | -0.978 ± 0.19 | -0.291 ± 0.14
